These results are taken from article PMC5398546.

Test [1] deals with wild-type human serotonin 5HT1B receptor (residues 34-390) with C-terminal His10 (human) (UniProt P28222). Nature of the test: fluorescent saturation binding assay (FSBA); DDM-solubilised donitriptan-bound His-tagged 5HT1BR immobilised on Ni2+-coated 96-well plate; GFP-mini-G protein 0 to 5 μM, 90 min on ice; specific binding = minus the GFP-mini-Gs condition; apparent KD, one-site fit.

Test [2] has as its target C-terminally truncated human A2AR (residues 1-317, N154A, C-terminal His10) (human) (UniProt P29274). Nature of the test: fluorescent saturation binding assay (FSBA); DDM-solubilised His-tagged β1AR or A2AR immobilised on Ni2+-coated 96-well plate; GFP-mini-Gs 0 to 2.8 μM, 90 min on ice; specific binding = agonist minus inverse agonist condition; apparent KD, one-site fit.

Chain of wild-type human serotonin 5HT1B receptor (residues 34-390) with C-terminal His10 (human) (P28222 34-390): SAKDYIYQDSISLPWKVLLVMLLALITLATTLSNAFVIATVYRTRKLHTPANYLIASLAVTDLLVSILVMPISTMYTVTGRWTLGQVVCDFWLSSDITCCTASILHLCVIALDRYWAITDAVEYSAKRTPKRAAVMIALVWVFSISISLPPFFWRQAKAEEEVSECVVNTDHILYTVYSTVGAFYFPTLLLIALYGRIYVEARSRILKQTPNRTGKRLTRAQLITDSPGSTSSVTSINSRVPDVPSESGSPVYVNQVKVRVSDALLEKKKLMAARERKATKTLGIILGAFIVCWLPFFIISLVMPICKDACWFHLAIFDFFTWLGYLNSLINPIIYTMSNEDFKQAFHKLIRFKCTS
Chain of C-terminally truncated human A2AR (residues 1-317, N154A, C-terminal His10) (human) (P29274 1-317 N154A): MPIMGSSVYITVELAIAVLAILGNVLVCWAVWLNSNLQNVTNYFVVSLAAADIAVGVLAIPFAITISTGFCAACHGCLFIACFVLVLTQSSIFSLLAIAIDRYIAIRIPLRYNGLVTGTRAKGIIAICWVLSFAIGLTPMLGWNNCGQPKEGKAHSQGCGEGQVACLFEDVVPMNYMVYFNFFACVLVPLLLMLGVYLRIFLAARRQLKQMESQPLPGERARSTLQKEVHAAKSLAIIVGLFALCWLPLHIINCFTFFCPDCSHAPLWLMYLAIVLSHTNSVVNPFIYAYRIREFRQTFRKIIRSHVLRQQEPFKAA

For the substance “GFP-mini-Go1 (construct 12) (domain or fragment)”, in test [1], the Kd was 180 nM.

Take GFP-mini-Gs (domain or fragment): in test [2], the Kd came to 430 nM.

For “GFP-mini-Gs/i1 (construct 43) (domain or fragment)”, in test [1], the Kd is 390 nM.
